Consider 2 molecules from article PMC5493754, “Myosin 7 and its adaptors link cadherins to actin” (Nature Communications, 2017).

What all share (conditions): both partners purified
One assay has as its target T1, YFP-Harmonin NPDZ1.PDZ2 (human, UniProt Q9Y6N9-1 1-301).
T1 construct: Harmonin-a1 (USH1C), human, residues 1-301 of UniProt Q9Y6N9-1; also called ^YFPNPDZ1.PDZ2; source: E. coli BL21 (DE3) Rosetta, purified (Glutathione Sepharose 4B, size-exclusion chromatography)
T1 sequence (looked up): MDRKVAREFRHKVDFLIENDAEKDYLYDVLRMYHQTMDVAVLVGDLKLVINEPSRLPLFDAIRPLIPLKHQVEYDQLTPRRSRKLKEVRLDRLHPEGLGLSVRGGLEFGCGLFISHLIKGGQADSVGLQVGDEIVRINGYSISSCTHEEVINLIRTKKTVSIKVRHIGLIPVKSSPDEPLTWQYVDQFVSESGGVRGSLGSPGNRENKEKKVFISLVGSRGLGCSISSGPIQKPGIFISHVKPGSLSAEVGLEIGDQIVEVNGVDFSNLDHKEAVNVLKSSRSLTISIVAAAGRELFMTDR
Kind of assay: MST; YFP-fused partner constant at 100 nM, non-fluorescent protein titrated (16 two-fold dilutions); 20 mM Hepes pH 7.0, 100 mM NaCl, 1 mM EGTA, 0.5 mM TCEP, 0.05% Tween 20; Monolith NT.115.

In assay [1] the target is T2, YFP-Full length (FL)-harmonin (harmonin-a1) (human, UniProt Q9Y6N9-1 1-552).
T2 construct: Harmonin-a1 (USH1C), human, residues 1-552 of UniProt Q9Y6N9-1; also called ^YFPFL (isoA); ^YFPFL; source: E. coli BL21 (DE3) Rosetta, purified (Glutathione Sepharose 4B, size-exclusion chromatography)
T2 sequence (looked up): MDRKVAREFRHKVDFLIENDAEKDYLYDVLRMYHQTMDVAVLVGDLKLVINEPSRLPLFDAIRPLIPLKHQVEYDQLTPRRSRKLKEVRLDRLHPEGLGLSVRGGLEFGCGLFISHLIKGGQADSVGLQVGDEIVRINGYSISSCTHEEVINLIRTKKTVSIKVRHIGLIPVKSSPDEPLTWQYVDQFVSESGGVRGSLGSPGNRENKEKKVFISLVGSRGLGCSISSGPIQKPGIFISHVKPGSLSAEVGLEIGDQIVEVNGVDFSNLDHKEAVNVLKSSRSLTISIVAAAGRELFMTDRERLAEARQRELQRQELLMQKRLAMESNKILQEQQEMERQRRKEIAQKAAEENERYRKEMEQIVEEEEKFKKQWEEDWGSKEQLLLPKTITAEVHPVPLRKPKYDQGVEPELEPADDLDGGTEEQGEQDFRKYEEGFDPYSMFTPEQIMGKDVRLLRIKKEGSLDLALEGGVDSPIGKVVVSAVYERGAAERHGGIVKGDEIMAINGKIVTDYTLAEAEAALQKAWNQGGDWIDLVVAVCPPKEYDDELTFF
Kind of assay: MST; as a1 but 150 mM NaCl (for FL-Harmonin-a); YFP-fused partner constant at 100 nM, non-fluorescent protein titrated.

The target of assay [2] is T3, Harmonin NPDZ1 (non-fluorescent, as used in MST and SEC-MALS) (human, UniProt Q9Y6N9-1 1-197).
T3 construct: Harmonin-a1 (USH1C), human, N-terminal domain and PDZ1, residues 1-197 of UniProt Q9Y6N9-1; source: E. coli BL21 (DE3) Rosetta, purified (Glutathione Sepharose 4B, size-exclusion chromatography)
T3 sequence (looked up): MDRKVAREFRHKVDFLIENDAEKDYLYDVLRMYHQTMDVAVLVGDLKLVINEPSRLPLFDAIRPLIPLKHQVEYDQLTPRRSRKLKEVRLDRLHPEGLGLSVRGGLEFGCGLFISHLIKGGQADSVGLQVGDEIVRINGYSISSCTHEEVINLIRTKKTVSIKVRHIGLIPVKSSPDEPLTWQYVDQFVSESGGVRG
Kind of assay: MST; YFP-fused partner constant at 100 nM, non-fluorescent protein titrated (16 two-fold dilutions); 20 mM Hepes pH 7.0, 100 mM NaCl, 1 mM EGTA, 0.5 mM TCEP, 0.05% Tween 20; Monolith NT.115.

The target in a further assay is T4, Harmonin NPDZ1.PDZ2 (human, UniProt Q9Y6N9-1 1-301).
T4 construct: Harmonin-a1 (USH1C), human, N-terminal domain, PDZ1 and PDZ2, residues 1-301 of UniProt Q9Y6N9-1; source: E. coli BL21 (DE3) Rosetta, purified (Glutathione Sepharose 4B, size-exclusion chromatography)
T4 sequence (looked up): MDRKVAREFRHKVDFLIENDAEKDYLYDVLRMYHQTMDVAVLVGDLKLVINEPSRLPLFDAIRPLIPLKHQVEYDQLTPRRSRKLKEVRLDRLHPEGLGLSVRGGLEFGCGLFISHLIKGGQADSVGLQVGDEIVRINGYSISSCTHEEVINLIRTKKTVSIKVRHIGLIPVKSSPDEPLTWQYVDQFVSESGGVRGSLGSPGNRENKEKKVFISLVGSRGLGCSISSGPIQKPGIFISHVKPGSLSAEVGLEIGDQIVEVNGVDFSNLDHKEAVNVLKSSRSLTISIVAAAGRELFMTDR
The description is as above.

Another assay addresses T5, FL-harmonin-ΔCter (human, UniProt Q9Y6N9-1 1-542).
T5 construct: Harmonin-a1 (USH1C), human, residues 1-542 of UniProt Q9Y6N9-1; also called FL ΔCter; source: E. coli BL21 (DE3) Rosetta, purified (Glutathione Sepharose 4B, size-exclusion chromatography)
T5 sequence (looked up): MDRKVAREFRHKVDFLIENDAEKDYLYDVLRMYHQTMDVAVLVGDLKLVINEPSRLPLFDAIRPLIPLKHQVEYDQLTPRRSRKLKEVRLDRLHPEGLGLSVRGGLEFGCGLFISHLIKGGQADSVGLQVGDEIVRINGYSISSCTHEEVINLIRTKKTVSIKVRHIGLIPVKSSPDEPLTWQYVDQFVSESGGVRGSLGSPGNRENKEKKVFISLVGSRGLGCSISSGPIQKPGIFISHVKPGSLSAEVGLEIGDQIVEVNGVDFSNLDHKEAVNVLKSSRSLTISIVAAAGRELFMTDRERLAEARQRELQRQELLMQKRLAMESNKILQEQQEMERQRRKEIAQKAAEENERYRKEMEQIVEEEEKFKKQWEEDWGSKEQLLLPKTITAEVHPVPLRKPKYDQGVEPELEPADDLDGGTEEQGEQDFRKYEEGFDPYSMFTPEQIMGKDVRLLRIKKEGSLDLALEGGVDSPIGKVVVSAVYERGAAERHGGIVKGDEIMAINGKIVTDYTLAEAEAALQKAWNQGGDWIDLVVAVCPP
Kind of assay: MST; as a1 but 150 mM NaCl (for FL-Harmonin-a); YFP-fused partner constant at 100 nM, non-fluorescent protein titrated.

In assay [3] the target is T6, Full length (FL)-harmonin (harmonin-a1) (human, UniProt Q9Y6N9-1 1-552).
T6 construct: Harmonin-a1 (USH1C), human, residues 1-552 of UniProt Q9Y6N9-1; also called FL-harmonin-a; source: E. coli BL21 (DE3) Rosetta, purified (Glutathione Sepharose 4B, size-exclusion chromatography)
T6 sequence (looked up): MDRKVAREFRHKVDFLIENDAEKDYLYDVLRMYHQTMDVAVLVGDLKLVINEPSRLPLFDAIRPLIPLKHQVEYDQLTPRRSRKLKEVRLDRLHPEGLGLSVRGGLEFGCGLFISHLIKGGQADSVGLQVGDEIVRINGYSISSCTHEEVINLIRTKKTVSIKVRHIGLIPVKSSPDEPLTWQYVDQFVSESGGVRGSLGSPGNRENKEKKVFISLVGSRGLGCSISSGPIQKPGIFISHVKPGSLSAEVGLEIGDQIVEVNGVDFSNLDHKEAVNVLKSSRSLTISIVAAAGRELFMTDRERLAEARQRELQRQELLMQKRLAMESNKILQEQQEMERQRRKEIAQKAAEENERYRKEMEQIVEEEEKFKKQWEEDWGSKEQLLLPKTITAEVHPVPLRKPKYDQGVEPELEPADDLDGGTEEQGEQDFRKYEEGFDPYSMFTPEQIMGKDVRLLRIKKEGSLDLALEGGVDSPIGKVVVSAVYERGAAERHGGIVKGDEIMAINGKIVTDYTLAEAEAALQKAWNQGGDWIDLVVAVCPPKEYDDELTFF
Described as above.

B1: Harmonin-a PDZ3c (non-fluorescent, as used in MST) (domain or fragment, human, UniProt Q9Y6N9-1 428-552, looked up)
chain: QDFRKYEEGFDPYSMFTPEQIMGKDVRLLRIKKEGSLDLALEGGVDSPIGKVVVSAVYERGAAERHGGIVKGDEIMAINGKIVTDYTLAEAEAALQKAWNQGGDWIDLVVAVCPPKEYDDELTFF
notes: Harmonin-a1 (USH1C), human, PDZ3 plus C-terminal peptide, residues 428-552 of UniProt Q9Y6N9-1; The methods say only that samples for ITC or crystallisation were digested with TEV protease; also called PDZ3c (isoA); source: E. coli BL21 (DE3) Rosetta, purified (Glutathione Sepharose 4B, size-exclusion chromatography)
What is called Kd is a measure of binding affinity in units of concentration. A high value points to a looser complex. On to B1, for which the equilibrium dissociation constant (Kd) with YFP-Harmonin NPDZ1.PDZ2 was 5.2 µM; in assay [1], 1.4 µM.

B2: YFP-Harmonin-a PDZ3c (domain or fragment, human, UniProt Q9Y6N9-1 428-552, looked up)
chain: QDFRKYEEGFDPYSMFTPEQIMGKDVRLLRIKKEGSLDLALEGGVDSPIGKVVVSAVYERGAAERHGGIVKGDEIMAINGKIVTDYTLAEAEAALQKAWNQGGDWIDLVVAVCPPKEYDDELTFF
notes: Harmonin-a1 (USH1C), human, residues 428-552 of UniProt Q9Y6N9-1; also called ^YFPPDZ3c (isoA); source: E. coli BL21 (DE3) Rosetta, purified (Glutathione Sepharose 4B, size-exclusion chromatography)
With B2, the Kd was found to be 14.2 µM in assay [2], 3.2 µM with Harmonin NPDZ1.PDZ2, 2.3 µM in the assay with FL-harmonin-ΔCter and 1.9 µM in assay [3].
